In PMC8469703, “Arginine Methylation of hnRNPK Inhibits the DDX3-hnRNPK Interaction to Play an Anti-Apoptosis Role in Osteosarcoma Cells” (International Journal of Molecular Sciences, 2021):

What was measured:
[1] = target: T1, GST-tagged full-length DDX3 (GST-DDX3^1–662) (human, UniProt O00571 1-662); assay: pull-down; bead-bound GST-DDX3 variants incubated with recombinant hnRNPK or the KI segment; binding buffer PBS with 0.5% NP-40, 0.25% sodium deoxycholate, 5% glycerol, protease inhibitors; 4 °C, 1 h; three washes; SDS-PAGE; conditions: both partners purified
T1 construct: Vector pGEX-5X-1

[2] = target: T2, GST-tagged C-terminal region of DDX3 (GST-DDX3^535–662) (human, UniProt O00571 535-662); assay: as above; conditions: both partners purified
T2 construct: Vector pGEX-5X-1; also called DDX3 C-terminus
T2 sequence (O00571 535-662): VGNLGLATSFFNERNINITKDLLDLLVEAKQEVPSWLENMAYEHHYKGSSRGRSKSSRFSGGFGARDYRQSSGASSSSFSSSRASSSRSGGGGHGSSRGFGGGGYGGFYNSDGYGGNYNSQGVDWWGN

T1 sequence (O00571 whole entry): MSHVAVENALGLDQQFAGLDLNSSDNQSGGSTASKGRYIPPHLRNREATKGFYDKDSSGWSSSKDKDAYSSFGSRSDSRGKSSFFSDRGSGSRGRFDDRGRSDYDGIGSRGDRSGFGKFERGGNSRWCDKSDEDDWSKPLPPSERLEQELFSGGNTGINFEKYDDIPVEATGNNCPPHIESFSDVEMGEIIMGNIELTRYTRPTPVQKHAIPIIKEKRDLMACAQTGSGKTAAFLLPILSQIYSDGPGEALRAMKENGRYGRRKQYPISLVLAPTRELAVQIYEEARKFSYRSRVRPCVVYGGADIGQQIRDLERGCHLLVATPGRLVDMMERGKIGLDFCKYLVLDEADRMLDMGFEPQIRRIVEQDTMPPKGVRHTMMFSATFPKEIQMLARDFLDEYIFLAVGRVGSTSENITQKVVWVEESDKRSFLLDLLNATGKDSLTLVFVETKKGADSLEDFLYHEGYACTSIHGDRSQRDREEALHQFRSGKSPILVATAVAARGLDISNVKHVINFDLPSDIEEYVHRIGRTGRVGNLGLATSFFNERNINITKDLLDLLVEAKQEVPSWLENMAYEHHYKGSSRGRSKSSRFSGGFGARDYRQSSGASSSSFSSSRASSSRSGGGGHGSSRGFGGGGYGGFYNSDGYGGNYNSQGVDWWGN

binding result [1]: binds | binding result [2]: binds
B1: His6-tagged Trx-KI (K-interactive region of hnRNPK, amino acids 240–336) (domain or fragment, UniProt P61978 240-336, looked up)
chain: TMMFDDRRGRPVGFPMRGRGGFDRMPPGRGGRPMPPSRRDYDDMSPRRGPPPPPPGRGGRGGSRARNLPLPPPPPPRGGDLMAYDRRGRPGDRYDGM
notes: also called his-KI; KI segment; source: E. coli BL21 DE3 pLysS, purified (Ni-NTA agarose, dialysis)
